According to article PMC10452355, “Phosphoserine Aminotransferase Pathogenetic Variants in Serine Deficiency Disorders: A Functional Characterization” (Biomolecules, 2023):

Target: the molecule itself
Assay: SEC; Superdex 200 Increase 5/150 GL, 50 mM HEPES pH 7, 300 mM KCl, room temperature, 0.3 mL/min; loaded at 23 µM, eluting at around 7.5 µM; apparent mass against a calibration curve; self-association (dimer)

B1: phosphoserine aminotransferase (PSAT), wild type, human, PSAT beta (enzyme)
chain: MDAPRQVVNFGPGPAKLPHSVLLEIQKELLDYKGVGISVLEMSHRSSDFAKIINNTENLVRELLAVPDNYKVIFLQGGGCGQFSAVPLNLIGLKAGRCADYVVTGAWSAKAAEEAKKFGTINIVHPKLGSYTKIPDPSTWNLNPDASYVYYCANETVHGVEFDFIPDVKGAVLVCDMSSNFLSKPVDVSKFGVIFAGAQKNVGSAGVTVVIVRDDLLGFALRECPSVLEYKVQAGNSSLYNTPPCFSIYVMGLVLEWIKNNGGAAAMEKLSSIKSQTIYEIIDNSQGFYVCPVEPQNRSKMNIPFRIGNAKGDDALEKRFLDKALELNMLSLKGHRSVGGIRASLYNAVTIEDVQKLAAFMKKFLEMHQL
notes: human phosphoserine aminotransferase, splice form PSAT beta (the long form; PSAT alpha lacks 46 amino acids between V290 and S337); PLP-dependent homodimer; also called wt PSAT; WT; source: E. coli BL21(DE3) tuner, purified (IMAC, Talon superflow); not shown: His tag (from the IMAC purification on Talon)
- stoichiometry N: 2
